Results: the DeepSol protein solubility set

Experiment: soluble on expression in E. coli; label from the status in PepcDB or PDB records

Row | Sequence | soluble on expression in E. coli
1 | MNRVQSGFRVPARVLNSLAHLQDGLNIFMDPDWRQIRHVDDWALAITMESAELIDSYPWKWWKNVKAQTDMHNVRIEIADILHFSLSGEIQKRTQDEKGADDVALKSLKEMGFFCRPPAHAKSTAASGQRTNGGDGDGDDELLELMFFPLTEVASAVATFRNIIQLASIYRFDLITKGLLLAAQDLDFNLVGYYVAKYTLNQIRQLKGYKEGVYVKVREGVEDNELLHECVQSVSVEDVLNEGTYLKAWEKIACSVFDAFGMPEEERRHAYDWLKSAALDGKG | soluble
2 | MNRYRQLAELFKTQIQQNTWRAGEKLPSVRVTSRNHSVSAGTVLQAYQLLEAQGWVAAKPQSGYFVTAELDRLEPSPPATSVYRSNINDELYDYLKNQASPDAMKFGSAFPDPALFPLDALNRNLASSGRKMGPETLLDNLPPGSESLRRLIAQRYIQQGMVLTHDDIVITSGALEALNLSLQAVTQPGDTIVVESPTFYGALQAIERLGLKAIEISVDPRIGHSLQQIEAAFTDHDVRACWLMTNFHNPTGMSLNDEQKQRIVELADKHDVYLIEDDVYSELYFSNKKPSSLRTFDTQDRVLHCGSFSKSLCPGYRLGWVVNKRFNEHLQKLQLISTLSGSAPIQQGIAHYLQNDSYDNHLRKLRKNLEQRQSTFIELIGKYFPKSIHYTQPEGGYFLWVELPESKCGKAIYQKLLEDNITVAFGKLFSVGTDYENYLRLNTSLPCNDELEEAVKTIGELLH | not soluble
3 | MNSDAEMNTEDGGSSPEEFGEADCFSEEEDEEIVLDTSDNDTSYAKEDKKSENEVLDNDLLEAEMNTTIADVQAVLQVDPGVCRILLHKYKWNKESLLERLYEHPDTIAFLIDAQVIPRQQEVIPAGDAECDICCSMDELSGLSCNHRACAECWQAYLTNKIVSDAQSEIECMAPNCKLLIEDEKVLAYIKDPTIIAKYRKMMVASYIEINALLKWCPGVDCGRTVKVSHGEPRLVVCTCGSRFCFSCGQDWHEPVNCRLLKLWMKKCNDDSETSNWINSNTKECPKCMATIEKNGGCNQITCKNTGCKFQFCWMCLGPWTVHANAWYKCNKFDDEASQTARTAQELYRANLTRYLFYYNRYMGHLQSLRLEGKLNKTVKAKMDQMQNLSMSWIDVQFLRKAVDVLSECRNTLMFTYIFAFYLKRDNNSMIFESNQKDLEMETEQLSGLLERDLENEDLLTLKQKVQDTFRYVEHRRKVLLDHCAEGTEQDIWQYNE | not soluble
4 | MNSKCHCVILNDGNFIPVLGFGTALPLECPKSKAKELTKIAIDAGFHHFDSASVYNTEDHVGEAIRSKIADGTVRREDIFYTSKVWCTSLHPELVRASLERSLQKLQFDYVDLYLIHYPMALKPGEENFPVDEHGKLIFDRVDLCATWEAMEKCKDAGLTKSIGVSNFNYRQLEMILNKPGLKYKPVCNQVECHPYLNQMKLLDFCKSKDIVLVAYGVLGTQRDGGWVDQNSPVLLDEPVLGSMAKKYNRTPALIALRYQLQRGIVVLNTSLKEERIKENMQVFEFQLSSEDMKVLDGLNRNMRYIPAAIFKGHPNWPFLDEY | soluble
5 | MNSPNILLDSFKIALVKKDSKQAFSLIERLSLEQIKSLDLDALLSLKEMIAQSIELLEKEKEELQLQMHKAKKIQKFLS | not soluble
6 | MNSRMSKLRRSISRSVFQLNSSLSRQNSLNGLVDLPTMSNTTLVDKFATPSNFRQLRDLIRNNNELLAEVVTAFEEKAALDFHYSKTLKKISIRLHKLTQSVESGIDKGWTNVAEQFDIHATIHSNLGSAITEDIIQPLRSIQSNQQKTIRAADNFVEREIRKLKDKKDETQKMKRSLYVLAKELEKTENSAEREKAQPEKFALRRKKYKDQMIRSEDDYVWQTVDLEKQRRMTENVLRKGVESMESVERQRLAHCQTALGRYKRKIETLGPNLRQMFERHSNNLELAVDSVPEDYIQTIQPSTSAVNHITLIDLHAENFGEVMSSTRRRQNLERVSGVLDSELKRLYNNQTADVMVSNSKQISVLEFIEYLYYKLNDSINIVDGGQNRGFHRLSRFQHKIKDKSGLPMTILTIPLSGDNNSLPPPCLSMEASTAYPSPRGSGEYEEYEKISDDGFYSTTTTSSNGGPIRTTTTFDEPTSSPPTICRVLYDFEPKHADEIEIREGQCVLVEDRIGDDWLIGHVISQHDNSSIDPRSGRFPTTYVSLRQ | not soluble
7 | MNSRQMYEKIKERLVAHPHWTFRFDAKQDAMRVEDRRTKKGVTISLPGVIAKWHEQKDEAVREVVYYVEQTLKTMEEDAALSGNERNIYPVIRSASFPTETKEGVPLLFDDHTAETRIYYALDLGKTYRLIDERMLEKDKWSRERVKEIARFNVRSLPTPVKEARVADNVFYFVNPNDGYDASRILNESFLADMRARVEGTMAVAVPHQDVLVIADVRNDIGYDVLAQMTMSFFAGGRVPITALSFLYENGKLEPIFILGKKRRT | not soluble
8 | MNSSPAGTPSPQPSRANGNINLGPSANPNAQPTDFDFLKVIGKGNYGKVLLAKRKSDGAFYAVKVLQKKSILKKKEQSHIMAERSVLLKNVRHPFLVGLRYSFQTPEKLYFVLDYVNGGELFFHLQRERRFLEPRARFYAAEVASAIGYLHSLNIIYRDLKPENILLDCQGHVVLTDFGLCKEGVEPEDTTSTFCGTPEYLAPEVLRKEPYDRAVDWWCLGAVLYEMLHGLPPFYSQDVSQMYENILHQPLQIPGGRTVAACDLLQSLLHKDQRQRLGSKADFLEIKNHVFFSPINWDDLYHKRLTPPFNPNVTGPADLKHFDPEFTQEAVSKSIGCTPDTVASSSGASSAFLGFSYAPEDDDILDC | soluble
9 | MNTDILIGAIAGDIIGSYYEFVPIKSIDFPLFNGSSSHFTDDTIMTIANADWLLTGDSLLGIMQDYGNRYHSSYGSMFYEWLRADNPQPYNSWGNGSAMRVSPIDWAFNTLEETLEAAKQSAEVTHNHPEGIKGAQATAACIYLARTGKSKQEIKEYVETTFGYNLNRTCDDIRPTYHFNESCQGTIPESIIAFLESTDYESAIRLTISLGGDADTMGAITGGIAEAYYKEIPQYIIDEVLKRLSEEFIDIMQRFYRMFISS | not soluble
10 | MNTFQMRDKLKERLSHLDVDFKFNREEETLRIYRTDNNKGITIKLNAIVAKYEDKKEKIVDEIVYYVDEAIAQMADKTLESISSSQIMPVIRATSFDKKTKQGVPFIYDEHTAETAVYYAVDLGKSYRLIDESMLEDLKLTEQQIREMSLFNVRKLSNSYTTDEVKGNIFYFINSNDGYDASRILNTAFLNEIEAQCQGEMLVAVPHQDVLIIADIRNKTGYDVMAHLTMEFFTKGLVPITSLSFGYKQGHLEPIFILGKNNKQK | not soluble
11 | MNTKLTKIISGLFVATAAFQTASAGNITDIKVSSLPNKQKIVKVSFDKEIVNPTGFVTSSPARIALDFEQTGISMDQQVLEYADPLLSKISAAQNSSRARLVLNLNKPGQYNTEVRGNKVWIFINESDDTVSAPARPAVKAAPAAPAKQQAAAPFTESVVSVSAPFSPAKQQAAASAKQTNIDFRKDGKNAGIIELAALGFAGQPDISQQHDHIIVTLKNHTLPTALQRSLDVADFKTPVQKVTLKRLNNDTQLIITTTGNWELVNKSAAPGYFTFQVLPKKQNLESGGVNNAPKTFTGRKISLDFQDVEIRTILQILAKESGMNIVASDSVSGKMTLSLKDVPWDQALDLVMQARNLDMRQQGNIVNIAPRDELLAKDKAFLQAEKDIADLGALYSQNFQLKYKNVEEFRSILRLDNADTTGNRNTLVSGRGSVLIDPATNTLIVTDTRSVIEKFRKLIDELDVPAQQVMIEARIVEAADGFSRDLGVKFGATGRKKLKNETSAFGWGVNSGFGGGDKWEAQTKINLPVAAAANSISLVRAISSGALNLELSASESLSKTKTLANPRVLTQNRKEAKIESGYEIPFTVTTASGGGNSTNTELKKAVLGLTVTPNITPDGQIIMTVKINKDSPAQCASGNNTILCISTKSLNTQAMVENGGTLIVGGIYEENNGNTLTKVPLLGDIPVIGNLFKTRGKKTDRRELLIFITPRIIDTAGNSLRY | not soluble
12 | MNTLISRQLGLLLHAHECVRRDIKIREAAEKNEPAPHAMCKIQDCVIMKEVLKHMTSCKEGPKCNSVHCASSRTILSHWKKCFNEECPVCKPIIEQRTAPPQDTTPAEPKKPEHDQIWHLEVPKTYRSELIEKIYKGIMSNVKPGTLSEAQMDTWKEYSRSAELQIFDTAQKLEAYYHMAREKVCRYQEGFPRRQKTEEKDESDGSEKEDEADDRLEGTSTDYQGS | not soluble
13 | MNTLMTQIHELQHVAHELLYLGADGSPIYTDSFRQLNTEVLQKSDALFALKGENPEEEARLCLALLMGYNATIYDYGDKESKKQVILDRSLLVLESLPSSLLKCQLLTYCYGEVFEEELAKEAHAIIDYWDNKTLSIDEQETVDMLKMIEENQYPNNYID | not soluble
